PMC6789141, “ZC3H18 specifically binds and activates the BRCA1 promoter to facilitate homologous recombination in ovarian cancer”

Biological target: T1, SFB-ZC3H18 (human, UniProt Q86VM9 1-953)
T1 sequence: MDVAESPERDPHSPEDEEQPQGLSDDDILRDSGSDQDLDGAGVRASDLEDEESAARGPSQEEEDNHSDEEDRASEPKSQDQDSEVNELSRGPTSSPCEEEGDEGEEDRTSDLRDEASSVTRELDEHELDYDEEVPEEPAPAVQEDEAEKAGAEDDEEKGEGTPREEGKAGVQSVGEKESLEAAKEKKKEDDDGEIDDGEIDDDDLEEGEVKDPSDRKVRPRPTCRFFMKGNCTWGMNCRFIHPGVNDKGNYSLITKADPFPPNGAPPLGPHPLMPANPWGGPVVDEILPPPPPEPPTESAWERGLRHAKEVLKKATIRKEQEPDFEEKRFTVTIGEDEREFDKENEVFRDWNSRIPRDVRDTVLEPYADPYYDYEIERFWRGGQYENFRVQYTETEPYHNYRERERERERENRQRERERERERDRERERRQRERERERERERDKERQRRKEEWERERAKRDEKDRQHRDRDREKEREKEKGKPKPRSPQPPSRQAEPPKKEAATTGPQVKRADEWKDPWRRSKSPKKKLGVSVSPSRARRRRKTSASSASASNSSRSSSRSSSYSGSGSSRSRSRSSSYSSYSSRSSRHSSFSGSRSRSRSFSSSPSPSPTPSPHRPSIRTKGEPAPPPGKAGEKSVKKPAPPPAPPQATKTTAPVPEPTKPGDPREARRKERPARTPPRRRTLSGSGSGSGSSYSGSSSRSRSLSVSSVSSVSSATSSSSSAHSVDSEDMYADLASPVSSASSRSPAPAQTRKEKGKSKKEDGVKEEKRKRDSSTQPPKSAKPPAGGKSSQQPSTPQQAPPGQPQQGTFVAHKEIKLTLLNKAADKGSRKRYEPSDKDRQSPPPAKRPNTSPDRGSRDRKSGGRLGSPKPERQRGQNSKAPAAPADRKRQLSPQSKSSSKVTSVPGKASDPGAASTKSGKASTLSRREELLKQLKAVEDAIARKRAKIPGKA
Experiment: EMSA; cold competition and anti-S-tag supershift confirm; EMSA: 20 mM Tris-HCl pH 8.0, 50 mM NaCl, 1 mM MgCl2, 5 mg/ml BSA, 1 mM DTT, 20 min at room temperature; 5% native gel, 0.25x TBE, 4 °C
Conditions: protein: recombinant; C-terminal 6xHis; label: 32P 5' end; duplex of complementary 50-mers

B1: E2FA/BWT (dsDNA)
DNA 1: TAGCCCCTTGGTTTCCGTGGCAACGGAAAAGCGCGGGAATTACAGATAAA
DNA 2: TTTATCTGTAATTCCCGCGCTTTTCCGTTGCCACGGAAACCAAGGGGCTA
B1: binds.
